T1: IL-17A重组蛋白(抗原), C端6×His标签 (human, UniProt Q16552 24-155, limits assumed, biotin in the ELISA of paragraph 227 (Biotin-IL-17A-His); site not stated)
T1 construct: Expressed in E. coli BL21 from pET28a and purified on a nickel column; also called IL-17A-His; Biotin-IL-17A-His
T1 sequence: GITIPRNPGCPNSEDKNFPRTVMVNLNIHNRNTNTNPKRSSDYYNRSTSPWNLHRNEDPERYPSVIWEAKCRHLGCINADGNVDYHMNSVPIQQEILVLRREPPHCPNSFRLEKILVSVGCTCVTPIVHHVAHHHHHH

B1: G4-H10:Fc融合蛋白 (IL-17Nb secreted by G4-H10-MSC; VHH-(GGGGS)3-VHH-IgG4 Fc) (Fc fusion)
chain: QVQLVESGGGLVQPGGSLRLSCAASGEKLDYFAIGWFRQAPGKEREVVSCVTSSGSSTNYLSSVKDRFTISIDNAKNTVYLQMNSLKPEDTAIYYCASTILLCSDYISAFGTWGQGTQVTVASGGGGSGGGGSGGGGSEVQLVESGGGLVQPGGSLRLSCAASGFSIHIYAMGWYRQAPGKQRELVATITRGGVTNNADSVKGRFTISRDNAKNTAYLQMNSLKPEDTAVYYCNAGGTNGGYWGQGTQVTVSSAPEFLGGPSVFLFPPKPKDTLMISRTPEVTCVVVDVSQEDPEVQFNWYVDGVEVHNAKTKPREEQFNSTYRVVSVLTVLHQDWLNGKEYKCKVSNKGLPSSIEKTISKAKGQPREPQVYTLPPSQEEMTKNQVSLTCLVKGFYPSDIAVEWESNGQPENNYKTTPPVLDSDGSFFLYSRLTVDKSRWQEGNVFSCSVMHEALHNHYTQKSLSLSLGK
B2: 阳性对照抗体依奇珠单抗 (Ixekizumab) (antibody, human IgG4 S228P, kappa, V domains shown)
VH: QVQLVQSGAEVKKPGSSVKVSCKASGYSFTDYHIHWVRQAPGQGLEWMGVINPMYGTTDYNQRFKGRVTITADESTSTAYMELSSLRSEDTAVYYCARYDYFTGTGVYWGQGTLVTVSS
VL: DIVMTQTPLSLSVTPGQPASISCRSSRSLVHSRGNTYLHWYLQKPGQSPQLLIYKVSNRFIGVPDRFSGSGSGTDFTLKISRVEAEDVGVYYCSQSTHLPFTFGQGTKLEIKR
notes: also called 阳性抗体

What was measured:
[1] = molecular target: 生物素化的IL-17A (ACRO Biosystems kit EP-139) (UniProt Q16552); experiment: competition ELISA kit (ACRO EP-139); IL-17RA coated, biotinylated IL-17A, supernatant diluted 5-fold; inhibition of IL-17A/IL-17RA binding
[2] = molecular target: T1, IL-17A重组蛋白(抗原), C端6×His标签; experiment: ELISA; antibody coated at 2 ug/mL, Biotin-IL-17A-His titrated from 10 ug/mL in 5-fold steps, HRP-streptavidin
[3] = molecular target: T1, IL-17A重组蛋白(抗原), C端6×His标签; experiment: cell-based or functional assay

Row | Binder | 结合抑制率 [1] [%] | EC50 [2] [µg/mL] | 阻断Human IL-17A蛋白激活293F-IL-17RA-IL-17Rc-ACT1-NFκB-Luc, IC50 [3] [nM]
1 | B1 | 60 |  | 
2 | B2 |  | 10.1 | 2.23

— patent publication CN117866905A (BEILAI PHARMACEUTICAL CO LTD, dated 2024)
